From US20230227838A1, “ENHANCED CELL SURVIVAL AGAINST BIOTIC AND ABIOTIC STRESSES THROUGH SALICYLICK ACID-INDUCED NPR1 CONDENSATES” (priority 2020, published 2023)

Target: sim3-GFP (Arabidopsis thaliana) (UniProt P93002)
Experiment: sim3-GFP IP, LC-MS/MS

Sequence of sim3-GFP (Arabidopsis thaliana) (P93002 other isoform, or with tags, fused parts or gaps): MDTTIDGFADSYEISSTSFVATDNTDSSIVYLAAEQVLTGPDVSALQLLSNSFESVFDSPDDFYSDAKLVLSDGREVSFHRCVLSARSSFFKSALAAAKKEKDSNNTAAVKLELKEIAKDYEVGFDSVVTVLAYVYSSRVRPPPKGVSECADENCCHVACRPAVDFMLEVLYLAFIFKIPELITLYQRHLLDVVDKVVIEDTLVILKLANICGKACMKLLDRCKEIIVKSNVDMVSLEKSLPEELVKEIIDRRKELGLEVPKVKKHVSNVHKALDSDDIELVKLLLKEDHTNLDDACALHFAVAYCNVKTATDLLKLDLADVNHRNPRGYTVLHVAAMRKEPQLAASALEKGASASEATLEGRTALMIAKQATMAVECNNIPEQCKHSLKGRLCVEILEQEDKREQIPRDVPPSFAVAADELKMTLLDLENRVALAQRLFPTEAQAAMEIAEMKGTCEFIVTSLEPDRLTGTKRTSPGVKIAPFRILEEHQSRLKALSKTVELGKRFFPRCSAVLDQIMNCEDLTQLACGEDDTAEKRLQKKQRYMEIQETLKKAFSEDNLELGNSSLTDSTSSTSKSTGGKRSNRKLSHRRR
Sequence of PCNA2, proliferating cell nuclear antigen 2 (Q9ZW35 whole entry): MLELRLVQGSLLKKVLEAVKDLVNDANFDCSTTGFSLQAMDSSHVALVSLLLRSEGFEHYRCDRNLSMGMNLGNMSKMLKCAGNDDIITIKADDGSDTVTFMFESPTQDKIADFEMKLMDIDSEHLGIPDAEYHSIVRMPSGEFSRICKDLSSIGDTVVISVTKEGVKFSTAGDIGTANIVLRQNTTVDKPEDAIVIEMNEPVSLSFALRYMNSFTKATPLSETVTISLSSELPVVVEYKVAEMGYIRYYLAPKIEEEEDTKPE
Sequence of P-loop containing nucleoside triphosphate hydrolases superfamily protein (AT3G28540) (Q9LH82 whole entry): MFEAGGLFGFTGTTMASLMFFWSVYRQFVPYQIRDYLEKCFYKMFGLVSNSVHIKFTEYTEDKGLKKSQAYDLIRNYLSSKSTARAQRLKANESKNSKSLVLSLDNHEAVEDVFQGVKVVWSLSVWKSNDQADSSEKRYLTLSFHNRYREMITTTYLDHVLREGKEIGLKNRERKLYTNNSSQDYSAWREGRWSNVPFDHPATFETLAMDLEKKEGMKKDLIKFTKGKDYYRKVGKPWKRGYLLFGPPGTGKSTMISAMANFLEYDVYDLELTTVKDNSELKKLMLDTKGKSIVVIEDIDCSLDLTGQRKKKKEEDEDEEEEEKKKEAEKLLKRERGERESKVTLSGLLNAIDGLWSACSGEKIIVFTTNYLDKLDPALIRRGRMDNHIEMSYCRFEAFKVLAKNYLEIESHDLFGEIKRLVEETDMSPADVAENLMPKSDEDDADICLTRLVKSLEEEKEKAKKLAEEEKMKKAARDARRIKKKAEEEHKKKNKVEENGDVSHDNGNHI
Sequence of NRP1, nodulin-related protein 1 (Q9ZQ80 whole entry): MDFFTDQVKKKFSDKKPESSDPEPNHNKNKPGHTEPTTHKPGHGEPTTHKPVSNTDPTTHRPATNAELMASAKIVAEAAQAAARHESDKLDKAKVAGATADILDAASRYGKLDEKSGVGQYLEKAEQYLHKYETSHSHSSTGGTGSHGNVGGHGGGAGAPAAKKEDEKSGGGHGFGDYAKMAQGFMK
Sequence of EFE, ethylene-forming enzyme (Q06588 whole entry): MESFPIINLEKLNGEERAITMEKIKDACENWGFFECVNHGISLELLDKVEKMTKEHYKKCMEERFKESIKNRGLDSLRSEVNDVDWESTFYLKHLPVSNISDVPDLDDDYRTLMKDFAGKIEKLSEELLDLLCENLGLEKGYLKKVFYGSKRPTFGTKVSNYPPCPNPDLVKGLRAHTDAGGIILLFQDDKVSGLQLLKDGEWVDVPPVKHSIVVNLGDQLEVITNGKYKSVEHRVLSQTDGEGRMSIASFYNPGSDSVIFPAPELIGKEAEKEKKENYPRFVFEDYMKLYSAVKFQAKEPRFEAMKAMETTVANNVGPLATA
Sequence of NAD(P)-binding Rossmann-fold superfamily protein (AT2G29320) (Q9ZW15 whole entry): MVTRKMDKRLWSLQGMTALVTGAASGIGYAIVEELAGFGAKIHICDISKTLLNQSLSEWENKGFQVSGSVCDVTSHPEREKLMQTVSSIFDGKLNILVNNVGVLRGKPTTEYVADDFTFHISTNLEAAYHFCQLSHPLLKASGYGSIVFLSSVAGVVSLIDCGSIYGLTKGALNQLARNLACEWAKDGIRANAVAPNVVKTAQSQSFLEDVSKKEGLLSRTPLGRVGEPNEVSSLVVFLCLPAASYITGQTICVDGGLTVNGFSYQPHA
Sequence of TOC34, translocon at the outer envelope membrane of chloroplasts 34 (Q38906 2-313): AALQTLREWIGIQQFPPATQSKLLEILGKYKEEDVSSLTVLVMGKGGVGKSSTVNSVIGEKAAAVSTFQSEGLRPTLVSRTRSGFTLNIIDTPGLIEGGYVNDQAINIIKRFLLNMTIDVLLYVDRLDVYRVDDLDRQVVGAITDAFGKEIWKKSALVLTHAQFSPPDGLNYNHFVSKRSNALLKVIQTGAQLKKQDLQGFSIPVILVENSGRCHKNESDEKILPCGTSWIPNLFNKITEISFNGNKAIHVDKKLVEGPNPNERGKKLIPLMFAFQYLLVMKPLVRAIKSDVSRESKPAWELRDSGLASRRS
Sequence of RNA helicase family protein (AT3G62310) (Q9LZQ9 whole entry): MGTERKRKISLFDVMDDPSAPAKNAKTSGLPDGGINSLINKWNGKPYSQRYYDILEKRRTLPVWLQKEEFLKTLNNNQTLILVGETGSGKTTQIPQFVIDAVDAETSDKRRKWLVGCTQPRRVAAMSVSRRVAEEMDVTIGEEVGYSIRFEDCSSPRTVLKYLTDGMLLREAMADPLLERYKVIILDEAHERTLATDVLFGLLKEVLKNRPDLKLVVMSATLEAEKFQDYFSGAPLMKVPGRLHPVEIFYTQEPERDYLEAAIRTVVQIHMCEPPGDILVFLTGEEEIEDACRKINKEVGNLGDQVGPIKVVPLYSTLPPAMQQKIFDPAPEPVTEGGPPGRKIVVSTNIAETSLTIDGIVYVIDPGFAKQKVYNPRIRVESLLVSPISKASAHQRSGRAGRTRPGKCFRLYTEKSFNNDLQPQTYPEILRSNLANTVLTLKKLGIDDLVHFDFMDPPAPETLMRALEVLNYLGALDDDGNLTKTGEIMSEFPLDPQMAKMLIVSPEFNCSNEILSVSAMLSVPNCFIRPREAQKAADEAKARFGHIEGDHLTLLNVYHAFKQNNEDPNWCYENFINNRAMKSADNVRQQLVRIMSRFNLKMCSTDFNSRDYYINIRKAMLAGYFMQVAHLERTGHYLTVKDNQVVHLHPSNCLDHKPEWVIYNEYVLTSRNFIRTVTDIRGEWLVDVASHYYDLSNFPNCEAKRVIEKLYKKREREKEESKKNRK
Sequence of ATSPS4F, Sucrose-phosphate synthase family protein (F4JLK2 whole entry): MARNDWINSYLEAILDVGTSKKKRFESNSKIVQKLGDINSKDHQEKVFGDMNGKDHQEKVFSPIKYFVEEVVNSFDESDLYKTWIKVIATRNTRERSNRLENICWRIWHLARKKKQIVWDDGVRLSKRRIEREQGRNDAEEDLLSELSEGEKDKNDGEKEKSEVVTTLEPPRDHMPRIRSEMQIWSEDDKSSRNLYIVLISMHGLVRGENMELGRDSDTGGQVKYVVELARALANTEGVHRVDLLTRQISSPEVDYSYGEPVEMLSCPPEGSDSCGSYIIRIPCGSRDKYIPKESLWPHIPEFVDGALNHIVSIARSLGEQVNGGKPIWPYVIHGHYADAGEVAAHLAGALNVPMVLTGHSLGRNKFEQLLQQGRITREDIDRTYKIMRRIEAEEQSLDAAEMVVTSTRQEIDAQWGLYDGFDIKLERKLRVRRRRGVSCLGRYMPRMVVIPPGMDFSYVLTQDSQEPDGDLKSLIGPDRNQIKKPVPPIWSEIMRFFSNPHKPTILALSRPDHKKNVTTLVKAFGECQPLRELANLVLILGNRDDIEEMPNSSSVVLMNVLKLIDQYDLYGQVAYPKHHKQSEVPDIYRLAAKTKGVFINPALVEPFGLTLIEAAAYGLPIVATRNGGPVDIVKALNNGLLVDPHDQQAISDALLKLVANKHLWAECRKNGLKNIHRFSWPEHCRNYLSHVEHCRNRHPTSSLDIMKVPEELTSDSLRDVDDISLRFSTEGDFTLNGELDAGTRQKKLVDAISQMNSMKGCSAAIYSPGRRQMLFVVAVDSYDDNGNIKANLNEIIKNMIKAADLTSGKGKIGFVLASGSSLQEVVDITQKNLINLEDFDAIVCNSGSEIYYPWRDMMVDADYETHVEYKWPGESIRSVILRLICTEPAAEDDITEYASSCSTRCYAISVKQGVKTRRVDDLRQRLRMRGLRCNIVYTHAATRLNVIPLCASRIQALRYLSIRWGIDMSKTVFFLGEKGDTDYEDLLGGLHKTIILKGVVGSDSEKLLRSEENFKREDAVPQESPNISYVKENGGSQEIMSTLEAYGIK
Sequence of SQE3, squalene epoxidase 3 (Q8VYH2 whole entry): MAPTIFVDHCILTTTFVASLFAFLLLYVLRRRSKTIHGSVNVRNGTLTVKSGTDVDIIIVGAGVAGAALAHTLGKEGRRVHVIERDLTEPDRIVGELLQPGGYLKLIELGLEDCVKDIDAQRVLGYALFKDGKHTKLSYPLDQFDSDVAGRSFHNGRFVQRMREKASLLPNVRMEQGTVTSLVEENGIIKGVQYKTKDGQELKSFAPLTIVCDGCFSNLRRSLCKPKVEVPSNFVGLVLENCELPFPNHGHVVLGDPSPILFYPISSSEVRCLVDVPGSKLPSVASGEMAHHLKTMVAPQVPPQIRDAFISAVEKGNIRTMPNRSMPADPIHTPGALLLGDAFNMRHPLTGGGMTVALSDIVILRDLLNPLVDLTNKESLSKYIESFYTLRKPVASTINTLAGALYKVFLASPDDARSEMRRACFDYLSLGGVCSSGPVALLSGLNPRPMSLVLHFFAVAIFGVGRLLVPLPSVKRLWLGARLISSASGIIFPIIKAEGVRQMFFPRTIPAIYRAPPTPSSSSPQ
Sequence of ROC3, rotamase CYP 3 (Q38900 whole entry): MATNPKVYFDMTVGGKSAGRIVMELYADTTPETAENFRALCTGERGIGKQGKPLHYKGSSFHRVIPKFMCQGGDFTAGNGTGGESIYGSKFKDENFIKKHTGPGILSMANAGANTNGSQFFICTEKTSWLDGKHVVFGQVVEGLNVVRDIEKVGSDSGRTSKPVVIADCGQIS

Compared with ATM1, myosin 1, “NPR3, NPR1-like protein 3 (from UniProt Q8L746 1-586)” is higher in Normalized Fold Change: SA vs Mock: 2.33 fold for the first, 9.4 fold for the second.

Compared with “SOUL-1, SOUL heme-binding family protein”, AT3G53470 is higher in Normalized Fold Change: SA vs Mock: 2.93 fold for the first, 4.35 fold for the second.

First: P-loop containing nucleoside triphosphate hydrolases superfamily protein (AT3G28540)
Second: Fes1A
The Normalized Fold Change: SA vs Mock of the first is higher: 9.62 fold for the first, 3.16 fold for the second.

Compared with SQE3, squalene epoxidase 3, “CAM7, calmodulin 7 (from UniProt P59220 1-149)” is lower in Normalized Fold Change: SA vs Mock: 50.1 fold for the first, 3.96 fold for the second.

First: Disease resistance protein (TIR-NBS class) (AT3G04210)
Second: RNR1, ribonucleotide reductase 1
The Normalized Fold Change: SA vs Mock of the first is lower: 7.6 fold for the first, 2180 fold for the second.

First: PRH75, DEAD box RNA helicase (PRH75)
Second: ERF1-2, eukaryotic release factor 1-2
The Normalized Fold Change: SA vs Mock of the first is higher: 5.9 fold for the first, 2.5 fold for the second.

First: P-loop containing nucleoside triphosphate hydrolases superfamily protein (AT5G17760)
Second: CYP51, CYTOCHROME P450 51G1
The Normalized Fold Change: SA vs Mock of the first is higher: 4790 fold for the first, 2.8 fold for the second.

Compared with EFE, ethylene-forming enzyme, TPS10, trehalose phosphate synthase is higher in Normalized Fold Change: SA vs Mock: 2.16 fold for the first, 2100 fold for the second.

First: NAD(P)-binding Rossmann-fold superfamily protein (AT2G29320)
Second: PCNA2, proliferating cell nuclear antigen 2
The Normalized Fold Change: SA vs Mock of the first is higher: 40 fold for the first, 2.83 fold for the second.

Compared with “Disease resistance protein (TIR-NBS class) (AT1G66090)”, “ATPAD4, PAD4, alpha/beta-Hydrolases superfamily protein (from UniProt Q9S745 1-541)” is lower in Normalized Fold Change: SA vs Mock: 6.26 fold for the first, 3.23 fold for the second.

First: CAND1, cullin-associated and neddylation dissociated (from UniProt Q8L5Y6 2-1219)
Second: PTEN 2
The Normalized Fold Change: SA vs Mock of the first is higher: 42.1 fold for the first, 2.24 fold for the second.

First: RHD3, Root hair defective 3 GTP-binding protein (RHD3)
Second: RNA helicase family protein (AT3G62310)
The Normalized Fold Change: SA vs Mock of the first is lower: 2.86 fold for the first, 7.18 fold for the second.

Compared with “ATSPS4F, Sucrose-phosphate synthase family protein”, “GSTF6, glutathione S-transferase 6 (from UniProt P42760 1-208)” is lower in Normalized Fold Change: SA vs Mock: 2.2 fold for the first, 2.01 fold for the second.

Compared with “TOC34, translocon at the outer envelope membrane of chloroplasts 34”, “UBA1, ubiquitin-activating enzyme 1 (from UniProt P93028 1-1080)” is lower in Normalized Fold Change: SA vs Mock: 9.76 fold for the first, 3.32 fold for the second.

First: S-adenosyl-L-methionine-dependent methyltransferases superfamily protein (AT2G32160)
Second: NRP1, nodulin-related protein 1
The Normalized Fold Change: SA vs Mock of the first is lower: 3.44 fold for the first, 14.3 fold for the second.

Compared with “P-loop containing nucleoside triphosphate hydrolases superfamily protein (AT2G28620)”, SAG2, aleurain-like protease is lower in Normalized Fold Change: SA vs Mock: 7.17 fold for the first, 4.08 fold for the second.

Going from ROC3, rotamase CYP 3 to “ATR4, CYP83B1, RED1, RNT1, SUR2, cytochrome P450, family 83, subfamily B, polypeptide 1 (from UniProt O65782 1-499)”, the Normalized Fold Change: SA vs Mock falls from 5.75 fold to 2.42 fold.

First: ATCNX1, CNX1, calnexin 1
Second: Leucine-rich repeat (LRR) family protein (AT5G45520)
The Normalized Fold Change: SA vs Mock of the first is lower: 5.26 fold for the first, 2270 fold for the second.

First: RD19A, Papain family cysteine protease
Second: GDH1, glutamate dehydrogenase 1
The Normalized Fold Change: SA vs Mock of the first is lower: 3.14 fold for the first, 86.4 fold for the second.
